The values that follow come from the supplement of paper PMC12636428.

The subject of the data set is Saccharomyces cerevisiae. Description: transcriptional activation domain activity (GFP:mCherry ratio, weighted mean of sorted bins, harmonized to initial dataset scale) (arbitrary fluorescence ratio units); higher = stronger transcriptional activation. As to conditions: beta-estradiol 1 µM; induction time 4 h. Summed up: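 The listed activation activity is a read-weighted mean of bin median fluorescence, averaged across barcodes and linearly mapped onto the initial dataset scale. Barcoded tiles, fused to an estradiol-inducible synthetic transcription factor, were integrated at URA3 in yeast diploids bearing a GFP reporter. Cells were held 4 hours at 30 °C in SC with 1 uM beta-estradiol, sorted into 8 GFP:mCherry bins, and sequenced, and tiles with fewer than 50 reads were excluded.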
Regarding “EEEYEEEEEEEYEEEEDEEEDEDEEEGGEGEEEDEVKAQRGRRAATAPARARR”, the “transcriptional activation domain activity” value was determined as 28000.
Consider “CKSFITVLMDLPHFTTSCVWVFFFSSFCFLWENASLLYRRLILSFFSFSFLFP”, for which the “transcriptional activation domain activity” value was 66000.
In the case of “LIHLMNIGQVSILFIHRFLYGLVPLFEITTCAFWPLLVSLWHLNFVLMYCIMF” it was 66000; in that of “AHQRTTGASAEEKLALEVVLIMRNDLITHVIVYVLRSFLVYNAPLTGPLAEKL”, 55000; in that of “SSAASAGGEGEGKDGKRKKDGQEEEEEEDKGSKKVKKNDGGAKQTKEGAKTSD”, less than 6570.
As for “ENKKEEPKSAKPTSKKAEKPVSKKADAETGEKRAADETKPAEKPASKKAKTDA”, the “transcriptional activation domain activity” value is 30800.
Then “QASPEAAKAEGEKASPEAAKAEGEAQPAEGQKEGEAAKAEGEAAAAEAGAGAG”, with 27600; and “GCVVSCKLVGLFTITLIGVAVLYDLWRIIDIRRGTTMAQFARHFVARALALIA”, with 21600.
Consider “YEASNHPEFDLNADVGLVIQVLEQTHSHTPIKLCSLIVKLQVVSGFLSYLESD”, for which the “transcriptional activation domain activity” value turned out to be 32800.
In the case of “QLLLVHEGCVMDRLAIAGFEGAALARALWFASFLKGVVRQDRIMEGMYYLLAP” it was 26300.
Regarding “MSEPPRKRAKLACVTCNSRRVKCDVTDRQPCTNCITANVHCETRESKRGKHPR”, the “transcriptional activation domain activity” value was 40500.
Regarding “DGYRNDNRGRNRRGNGRSRSPRGGKDSRNGTPPLTEDERDKRTIFVQQLAARL”, the “transcriptional activation domain activity” value stood at 57100.
As to “MGLGVLYHLSLLFPFLFFFLYLSSSFPSFLILFFFFFGYSPSAVWVFLFCFGQ”, the “transcriptional activation domain activity” value came out at 58100.
Then “IKDFEAHLFAIILYHLSFFGCRALGVVSMLKCQGQMCDPWSLMYRGLYVFYRL”, with 35900; and “RYLKCGGHVKHFFDLSRRADLSLEWLRRYPMEAVITDQIVSWLCHICLRQMRV”, with 46000.
“MLSRCFKCPYGAWGVIIFFIFFFYFFLNIPFFFVYYYLLFFVCSFFSFFFHFI”: the “transcriptional activation domain activity” value is 38600.
Then “LSILIYESIPERRQSSLARSDGISAMDVCVSLLVTLAHLSPLVSRFGGVTING”, with 72500.
Then “APKDESEAPKPAEEDSPSKRKKAEEVKIEKKEETPARPEPQHTQPKQPAAKAK”, with 10100; and “LTHEPSKPPRRVPYTTLLHTVPLLIILTVLSAVVCYVHILLLRVFVKPVVIGT”, with 46600.
Then “REYHGDTAEIKYGHKVVEIGEDKERGKARVRVEKDGEGGVKEEEVHEADYVVG”, with 22600; and “CLILVFADSWLFLTFTGVLLHGVGIELNKFTCSLGIFSCILLYTSSKVLIYFF”, with 42800.
Regarding “HVQIASSDVIKRVSSRVAWCLKSILTILLNVNQLEMSVLRSRVLRLIVFFLHY”, the “transcriptional activation domain activity” value turned out to be 62300.
Then “DKATMRRAFFERIVTERINIMGKMSISLIHSLIVDCMFLSTARSFLWLLWAYV”, with 56300.
In the case of “AVPGEVTEAEANGETDKAEGAAPAEGDAEKPKKKKKKSAKKPKSTGAEGEAAE” it was 24700; in that of “TQPIDIAASNQQNGEIAQLWDFNVDQFNMTPSNSSGSATISAPNSFTSDIPQY”, 57300.
In the case of “LFRDDEFWGIFASDVGLLVMMGWYGFKTLLWTYILPLMWVNHWIVMITYLHHT”, the “transcriptional activation domain activity” value was 55100.
Then “FVYELWRHGGLGVYSFRLTELLVKVVLEAECKEIMDWWLEKQGYILHDLHRKA”, with 50300; and “NMDQLDSVHNLNDDDLQQLLEDLGNIDHSDEKLWKEITDQAMWLGNTMDPTAA”, with 149000.
Then “PSNQAFWIACLFSSVMYHLLFHLLLLFFSLLFLFFLFFLPSYHVLFHFHHMTG”, with 47700; and “LACIVVCVIVYVVLTLLPLFYRDCPYLTPMSGPLWRFLQAFQFVSIVSFRRIY”, with 41900.
Then “DGVTNTPVELGVAKEGGNLEVVNSRTALVVSKHWILLIGLLGRYGMRKDKGVL”, with 49400; and “QGRTLDVTRAVSRDRAEKLRETGERTRERKDKRNLYLMREGVIFVSTPSASTL”, with 39700; and “MYHIVIIIPLCLLLFGPFILATDSPFCIVRHPFFFFFLFYQSFIAFTFFFFFT”, with 62700.
Regarding “SQLPSLRLFNSYLALWAIGLISIMLFLLIATWHYARVDWQMQVLAVHHVLNLS”, the “transcriptional activation domain activity” value amounted to 34800.
“APVAEPVPVASTSSEVKKDEEEADEDEEDDNVASIEAKIAAARSRLSATHCLF”: the “transcriptional activation domain activity” value came to 10900.
In the case of “MELFFRLFFWLMSWLLQLTHYFNTFTVLLYIHSLFSGVWFCKVLGFSFFFLYH” it was 51600; in that of “VGAVMVRGQDYVPAFDVAPDWESYDYAKLDPTNDDDKEFINNMWAWDKPVSVN”, 57300; in that of “NGGGEQPKGGRGGKSEGGAGNDQGRTNNRGRGDRRGGRGGRDNRGGRGGGSRD”, less than 6570.
In the case of “VRVLNQLKLLLYCTLLSPVYAFKPYRNLYYTFLRKNLLGVVGGYNCAGHNLAI” it was 55500.
Then “FLDVSTSYDIGNPPSISDDLLDLSIFTAQNFQSPSIDFRRVKLMHDFLDVSRF”, with 125000.
As to “ESEVAASENGKGKKEEEEKKRKKGLASTRQRNAAGKQSSSSKEEGKGARAYRS”, the “transcriptional activation domain activity” value was found to be 26100.
For “NGHGTHCSGTVAGKKYGVAKKANIKAVKVLRSNGSGTMSDVVKGVEFAAEQHS”, the “transcriptional activation domain activity” value worked out at 15600.
Then “KLAKKEPKAAAKPKTEKAKVEKKPAAKKATTTKAKPAAPKAKAAAKPKAATTK”, with 23800; and “PMGGDPLLDQAFYGADDFFFPPEGCDNNMLYPQTATSWNVLPPQAMQPAPTYV”, with 63900.
In the case of “KDDEKKDRHRSRRDRGDRDKEDERRRRKRRSRSRSNHRHGHERRRDRSRSREG” it was 17100; in that of “ASGAAAPSGTPSLFGAKPAGTTAAPATSTPAGGLFGAASSAAPAASATTPTTG”, 47400; in that of “SVYALVHFGAFYRSSHGPIRMLALHIQAFYNLCSLLFSWFAIANLWLTFSIII”, 67600.
For “MGCFFSFLFFFLFLFLFRSTVQSKVAFSLSLFFSLFKYLFFCCLVLGYFYLVL”, the “transcriptional activation domain activity” value was 70500.
In the case of “LAESQRQNQQGGRGRGGRSLFDRTERGRGNRRGGHQGNGHHARQDEAANGGAE” it was 17600.
As for “RKKRERRERLKRGKKGGKKGDEDGAGDGEKGKGGKVKARVVIREDAEGLGGEG”, the “transcriptional activation domain activity” value is 30900.
In the case of “ASKRKRTEGESKKKEAKRERPKKKSRRDDDDDASGGDELEGKRSRKPKRASAS”, the “transcriptional activation domain activity” value was 18500.
Then “GAQKPFDLTHWNITEYDCQGFDGYHEMSFFVLASHLYYRSLRSIPSLVRLWWI”, with 75200; and “MHYIGGYLVLFYFFLFLFFFYFFFFSPFFYFLPFLFFLFFSIPYFFFFAPFVS”, with 39700; and “AAGGGGTGAGGAAGAARAAGHGAVGAAAGDGEQREGRAGRGRGHGRGVEGGRG”, with 59200.
Consider “VSVSLIFFTCFLSLSLFFCVLVRVSWLSVPVPSIVFFWISFLLFCPFFPFSFF”, for which the “transcriptional activation domain activity” value came to 35700.
As to “EEGAATDGTADANGKPKKAPRKRKSQAGATTEDGQAPKRRKKKSTDAAGGAAA”, the “transcriptional activation domain activity” value was found to be 31300.
In the case of “MWGVLCNWLKHNGMVFSVQCFTFDFLFSFPLSLFFPFFLFSFFLFFLYSFAII” it was 50100; in that of “RGSVESDLIILAMTCTLDILMHLPRSVFYRRQLDLFLWLLRVIPSVKTTNSLN”, 41400.
Then “LLMYTLFYMISEIFYSVAYDAHYFMFDPISVALVQCPMFACVVISVLYGHIWS”, with 57800; and “KLKSLVAIVWILDFVHLILICQAIYHYLITNWGTTQRFCSPPRFSICTLCLSL”, with 55200; and “GFLLSYSLIRLSLTSHLLFGVFLLIQDIMLVLFSLYPTYPILLFSFLIFIGSF”, with 35500.
In the case of “PSRPATPPRSSSAPTGISPNPRTRTCSSASCCASSRSPPSTTSPPTPPAAAAP” it was 51100; in that of “ARVLGKKNTLEGLASTIRGTVRFVRETCYAVIYCMTRLDMQFYGFLELPGPLA”, 39600; in that of “PDHIHHHSNNMNNEDNDNNNGSNNKVSNDSKLDFVTDDLEYHLANTHPDDTND”, 47000.
Consider “KQRKAELIHHVVPLAVAAAFSIFLSGEDLEGPRIYHSMASLKVLRRLVAVISS”, for which the “transcriptional activation domain activity” value was found to be 54400.
Then “PVAPPAASQPHPTANTMQATHAPPSSGRRRGRPKGSKNKPKPEAPTGPEASAG”, with 6790; and “MGLSSSCFFLLLLVLSLFYYFFLSFFFIGHVAYFMTCGGLERAFLYLLLLLLL”, with 49100; and “RIESHLSEREYKLQTFAEFLRVPDNGSLDIESLDSSLIENTLNSHDVTNQALD”, with 26700.
Then “MFCLRSWIPLLFIPANASPGFIFLFFVCTYFLNRPCVYCSILLLILFVTSCYW”, with 41000.
In the case of “MRVCVTSLFFFPLSFFPILIKLFLLSHHLFPTSNPFSFVFSSFAPFLPAFSFI” it was 40900.
Regarding “MTISSPYCLFRCVAYGPWQTLSVLFCFFFFLLLFLSPSLHHLFYFLSLDFFSY”, the “transcriptional activation domain activity” value came out at 55500.
Then “GEEVSAPLPKPKGKGGRPRKHPRPEPVASEYEVDGEPTPKRARRAIKSKRGRR”, with 23500.
Consider “LWHLVYEPILKGIHEHLLLLDEIIEIFGPDVEKELFRRVYYYLSLLCMHSGTH”, for which the “transcriptional activation domain activity” value came out at 24600.
In the case of “VEAAEPEIEVPNKDSRPSKRGRKEKVIEEEDSAPVDKPVSKGKKAAPVAKTAL”, the “transcriptional activation domain activity” value was 15300.
